Reference: publication PMC3136172, “Stabilization of a G-Quadruplex from Unfolding by Replication Protein A Using Potassium and the Porphyrin TMPyP4”

Key:
RPA-CDE-core = RPA-CDE-core (UniProt P27694;P15927;P35244 436-616;45-171;1-121); assay: CD titration (G4 unfolding); 100 mM NaCl, 2 mM Mg2+; efficient unfolding, less than RPA; 25 mM Tris pH 7.5, 2 mM MgCl2, 0.5% inositol, 1 mM DTT, 100 mM NaCl or 100 mM KCl, 25 C; 1.4 uM DNA, protein:DNA ratio 0-5; conditions: protein: recombinant; tags: N-terminal His-tag, thrombin-cleaved; copies: 1;1;1; intramolecular G4; mixed parallel/antiparallel in K+, antiparallel in Na+
[1] = target: RPA (full-length replication protein A) (human, UniProt P27694;P15927;P35244 1-616;1-270;1-121); assay: CD titration (G4 unfolding); 100 mM NaCl, 2 mM Mg2+; complete unfolding at RPA:DNA ratio 2; 25 mM Tris pH 7.5, 2 mM MgCl2, 0.5% inositol, 1 mM DTT, 100 mM NaCl or 100 mM KCl, 25 C; 1.4 uM DNA, protein:DNA ratio 0-5; conditions: protein: recombinant; copies: 1;1;1; intramolecular G4; mixed parallel/antiparallel in K+, antiparallel in Na+
Chain of RPA (full-length replication protein A) (P27694 whole entry, chain 1 of 3): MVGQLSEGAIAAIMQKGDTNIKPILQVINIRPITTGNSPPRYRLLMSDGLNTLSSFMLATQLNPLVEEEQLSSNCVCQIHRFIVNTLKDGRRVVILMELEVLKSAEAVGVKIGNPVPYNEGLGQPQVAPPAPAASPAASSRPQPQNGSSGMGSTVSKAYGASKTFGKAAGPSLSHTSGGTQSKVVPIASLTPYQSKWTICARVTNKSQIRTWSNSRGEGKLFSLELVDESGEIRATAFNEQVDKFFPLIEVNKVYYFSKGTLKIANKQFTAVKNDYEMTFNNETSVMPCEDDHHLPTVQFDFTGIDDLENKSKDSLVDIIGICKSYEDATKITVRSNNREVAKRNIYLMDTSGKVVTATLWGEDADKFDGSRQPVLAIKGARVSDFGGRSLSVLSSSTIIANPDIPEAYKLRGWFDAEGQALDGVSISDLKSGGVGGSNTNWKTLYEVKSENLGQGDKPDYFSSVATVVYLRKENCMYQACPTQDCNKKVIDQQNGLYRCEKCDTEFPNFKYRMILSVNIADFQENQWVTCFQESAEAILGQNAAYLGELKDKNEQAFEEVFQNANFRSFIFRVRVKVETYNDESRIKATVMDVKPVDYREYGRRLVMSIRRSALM
Chain of RPA (full-length replication protein A) (P15927 whole entry, chain 2 of 3): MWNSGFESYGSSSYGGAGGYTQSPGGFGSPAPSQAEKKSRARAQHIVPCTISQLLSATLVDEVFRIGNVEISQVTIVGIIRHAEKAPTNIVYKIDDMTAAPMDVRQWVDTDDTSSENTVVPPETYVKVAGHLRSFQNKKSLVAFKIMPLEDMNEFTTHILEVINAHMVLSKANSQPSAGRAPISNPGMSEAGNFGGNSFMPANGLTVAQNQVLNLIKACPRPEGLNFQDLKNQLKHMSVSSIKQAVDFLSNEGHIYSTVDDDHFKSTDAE
Chain of RPA (full-length replication protein A) (P35244 whole entry, chain 3 of 3): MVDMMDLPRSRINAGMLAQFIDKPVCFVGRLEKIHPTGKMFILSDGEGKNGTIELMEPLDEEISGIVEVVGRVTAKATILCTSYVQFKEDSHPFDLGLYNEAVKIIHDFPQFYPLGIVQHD

Chain of RPA-CDE-core (P27694 436-616, chain 1 of 3): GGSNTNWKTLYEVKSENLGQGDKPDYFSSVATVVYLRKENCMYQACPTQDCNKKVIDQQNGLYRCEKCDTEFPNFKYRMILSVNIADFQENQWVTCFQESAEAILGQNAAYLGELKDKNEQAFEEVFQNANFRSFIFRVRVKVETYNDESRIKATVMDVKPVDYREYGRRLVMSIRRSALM
Chain of RPA-CDE-core (P15927 45-171, chain 2 of 3): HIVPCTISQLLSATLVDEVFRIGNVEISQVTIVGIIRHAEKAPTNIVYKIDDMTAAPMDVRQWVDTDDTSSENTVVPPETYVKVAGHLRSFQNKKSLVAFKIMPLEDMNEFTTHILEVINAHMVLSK
Chain of RPA-CDE-core (P35244 whole entry, chain 3 of 3): as the sequence (P35244 whole entry, chain 3 of 3) above

TAGGGGAAGGGTTGGAGTGGGTT (structured_DNA) [Gq23]
binding result (RPA-CDE-core): binds | binding result [1]: binds
